Paper PMC8699970

How the values were obtained:
[1] = biological target: AjNLRC4 (native, on coelomocytes) (Apostichopus japonicus (endogenous in coelomocytes)); test: cross-linking; sea cucumbers injected with V. splendidus for 30 min; coelomocytes treated with BS3 (5 mM, 4°C, 1 h); SDS-PAGE and western blotting with anti-AjNLRC4 antibodies
[2] = biological target: GST-tagged AjNLRC4-IN (intracellular fragment of AjNLRC4 with the NACHT domain) (Apostichopus japonicus); test: MST; Monolith NT; labeled GST-AjNLRC4-IN (10 μM) constant, a range of concentrations of His-β-Actin; 50 mM Tris-HCl pH 7.8, 150 mM NaCl, 10 mM MgCl2, 0.05% Tween-20; 10 min incubation; 20% LED power, 80% MST power

oligomeric state (subunits per complex) [1] | Kd [2] | Substance
2 |  | AjNLRC4 (native, on coelomocytes) (receptor)
 | 5.87 µM | His-tagged Ajβ-actin (natural protein)
